Measurements as given in PMC9120461, “Structural insights into the mechanism of pancreatic KATP channel regulation by nucleotides” (Nature Communications, 2022).

How the values were obtained:
[1] = target: T1, SUR1 from Mesocricetus auratus (maSUR1), as the SUR1 part of H175K_(cryo-EM) (Mesocricetus auratus, UniProt A0A1U7R319 1-1582); assay: cryo-EM structure; purified H175K_(cryo-EM) fusion protein (13.5 uM octamer) in TBS (20 mM Tris-HCl pH 7.5, 150 mM NaCl) with 0.1% digitonin, with 5 mM MgCl2, 0.5 mM ADP, 0.5 mM NN414 and 10 uM PI(4,5)P2diC8; closed and pre-open states resolved in the same sample; conditions: both partners purified
T1 construct: SUR1 from Mesocricetus auratus (maSUR1); In the assay it stood on one chain with Kir6.2 H175K: its C terminus is joined to the 41-residue linker and the Prescission site; also called SUR1 subunit; source: purified in digitonin (Streptactin 4FF resin, Superose 6 increase)
T1 sequence (A0A1U7R319 entry or part of it H175K H175K): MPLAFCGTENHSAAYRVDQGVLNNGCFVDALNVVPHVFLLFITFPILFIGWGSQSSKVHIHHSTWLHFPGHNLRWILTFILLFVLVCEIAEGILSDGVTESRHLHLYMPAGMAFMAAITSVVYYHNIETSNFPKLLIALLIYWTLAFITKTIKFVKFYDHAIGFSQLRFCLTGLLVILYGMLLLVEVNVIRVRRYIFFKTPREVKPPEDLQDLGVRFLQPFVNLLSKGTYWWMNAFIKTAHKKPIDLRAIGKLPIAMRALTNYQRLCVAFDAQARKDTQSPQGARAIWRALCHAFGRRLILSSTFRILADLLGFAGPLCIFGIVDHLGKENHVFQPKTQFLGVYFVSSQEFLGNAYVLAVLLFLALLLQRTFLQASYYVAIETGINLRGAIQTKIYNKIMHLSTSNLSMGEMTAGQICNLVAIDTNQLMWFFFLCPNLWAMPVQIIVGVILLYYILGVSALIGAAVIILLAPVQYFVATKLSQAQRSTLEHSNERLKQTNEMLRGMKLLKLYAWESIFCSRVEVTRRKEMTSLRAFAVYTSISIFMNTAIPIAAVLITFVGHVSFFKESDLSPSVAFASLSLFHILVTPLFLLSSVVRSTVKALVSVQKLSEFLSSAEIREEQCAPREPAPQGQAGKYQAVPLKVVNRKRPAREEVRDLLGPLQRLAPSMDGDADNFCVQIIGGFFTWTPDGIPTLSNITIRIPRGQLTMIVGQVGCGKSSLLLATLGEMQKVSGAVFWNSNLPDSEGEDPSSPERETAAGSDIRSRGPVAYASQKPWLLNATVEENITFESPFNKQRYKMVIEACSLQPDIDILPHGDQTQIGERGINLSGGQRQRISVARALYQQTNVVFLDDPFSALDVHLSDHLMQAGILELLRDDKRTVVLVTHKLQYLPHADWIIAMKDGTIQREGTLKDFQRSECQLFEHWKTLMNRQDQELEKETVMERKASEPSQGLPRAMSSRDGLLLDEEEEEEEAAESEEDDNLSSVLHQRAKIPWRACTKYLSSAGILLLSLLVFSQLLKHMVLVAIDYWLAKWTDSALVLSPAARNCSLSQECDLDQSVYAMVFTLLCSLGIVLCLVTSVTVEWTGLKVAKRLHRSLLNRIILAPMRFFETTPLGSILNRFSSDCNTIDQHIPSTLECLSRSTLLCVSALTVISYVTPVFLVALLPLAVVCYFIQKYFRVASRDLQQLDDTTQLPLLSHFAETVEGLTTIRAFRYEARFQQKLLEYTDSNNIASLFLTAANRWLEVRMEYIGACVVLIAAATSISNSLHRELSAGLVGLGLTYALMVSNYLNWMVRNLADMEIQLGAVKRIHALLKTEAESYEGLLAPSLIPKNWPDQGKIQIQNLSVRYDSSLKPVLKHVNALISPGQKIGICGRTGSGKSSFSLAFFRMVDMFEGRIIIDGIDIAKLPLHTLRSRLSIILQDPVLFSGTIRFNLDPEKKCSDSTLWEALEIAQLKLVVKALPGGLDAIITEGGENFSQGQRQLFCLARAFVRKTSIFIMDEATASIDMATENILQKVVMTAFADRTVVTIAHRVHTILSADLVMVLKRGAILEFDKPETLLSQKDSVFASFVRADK

[2] = target: the molecule itself; assay: as above

binding result [1]: binds
B1: Kir6.2 from Mus musculus (mmKir6.2) H175K mutant, as the Kir6.2 part of H175K_(cryo-EM) (natural protein, UniProt Q61743 2-390, looked up)
chain: LSRKGIIPEEYVLTRLAEDPAEPRYRTRERRARFVSKKGNCNVAHKNIREQGRFLQDVFTTLVDLKWPHTLLIFTMSFLCSWLLFAMVWWLIAFAHGDLAPGEGTNVPCVTSIHSFSSAFLFSIEVQVTIGFGGRMVTEECPLAILILIVQNIVGLMINAIMLGCIFMKTAQAKRRAETLIFSKHAVITLRHGRLCFMLRVGDLRKSMIISATIHMQVVRKTTSPEGEVVPLHQVDIPMENGVGGNGIFLVAPLIIYHVIDSNSPLYDLAPSDLHHHQDLEIIVILEGVVETTGITTQARTSYLADEILWGQRFVPIVAEEDGRYSVDYSKFGNTIKVPTPLCTARQLDEDRSLLDALTLASSRGPLRKRSVAVAKAKPKFSISPDSLS
notes: Kir6.2 from Mus musculus (mmKir6.2), first Met removed, H175K mutant; In the assay it stood on one chain with SUR1: its N terminus is joined to the Prescission site and the 41-residue linker after SUR1; source: purified in digitonin (Streptactin 4FF resin, Superose 6 increase)
binding result [2]: binds
